B1: TBX6 (parent)
chain: AFLELPHGSGGSGYPAAPPAVPFA

The results in this text go back to the supplement of paper PMC10567573.
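Further: lentivirally expressed fusions sorted by FACS into six bins by GFP to DsRed ratio, PSI derived from sequencing read proportions per bin multiplied by bin number.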

In the data set the parent is B1. Put plainly: protein stability index of a GFP-peptide fusion (GPS, HEK-293T) (PSI 1-6); higher = more stable. To be noted: c terminus: a fixed tail appended.
AFLELPHGSGGSGYPAAPPAVPFQ [A24Q]: the protein stability index was 2.71. For the variant AFLELPHGSGGSGYPAAPPAVPFR [A24R], the protein stability index was found to be 2.54.

For the variant AFLELPHGSGGSGYPAAPPAVPFY [A24Y], the protein stability index is 1.89.

For the variant AFLELPHGSGGSGYPAAPPAVPFT [A24T], the protein stability index worked out at 2.55.

Turning to AFLELPHGSGGSGYPAAPPAVPFN [A24N], the protein stability index was 2.68. Take AFLELPHGSGGSGYPAAPPAVPFK [A24K]: the protein stability index stood at 2.55. Turning to AFLELPHGSGGSGYPAAPPAVPFD [A24D], the protein stability index was 3.33. Regarding AFLELPHGSGGSGYPAAPPAVPFW [A24W], the protein stability index was found to be 1.67. Under AFLELPHGSGGSGYPAAPPAVPFV [A24V] stands 2.47; under AFLELPHGSGGSGYPAAPPAVPFM [A24M], 2.19. Regarding AFLELPHGSGGSGYPAAPDAVPFA [P19D], the protein stability index worked out at 2.56. As to AFLELPHGSGGSGYPAAPWAVPFA [P19W], the protein stability index was found to be 2.83. For the variant AFLELPHGSGGSGYPAAPYAVPFA [P19Y], the protein stability index came out at 1.48.

Take AFLELPHGSGGSGYPAAPFAVPFA [P19F]: the protein stability index amounted to 1.59. On to AFLELPHGSGGSGYPAAPIAVPFA [P19I], for which the protein stability index came to 2.27. AFLELPHGSGGSGYPAAPKAVPFA [P19K]: the protein stability index was found to be 2.07. Consider AFLELPHGSGGSGYPAAPHAVPFA [P19H], for which the protein stability index worked out at 2.23. On to AFLELPHGSGGSGYMAAPPAVPFA [P15M], for which the protein stability index is 1.77.

With AFLELPHGSGGSGYIAAPPAVPFA [P15I], the protein stability index is 2.01.

As to AFLELPHGSGGSGYSAAPPAVPFA [P15S], the protein stability index is 2.38. Consider AFLELPHGSGGSGYFAAPPAVPFA [P15F], for which the protein stability index came out at 1.54. Under AFLELPHGSGGSGYRAAPPAVPFA [P15R] stands 1.88; under AFLELPHGSGGSGYYAAPPAVPFA [P15Y], 2.23. On to AFLELPHGSGGSGYGAAPPAVPFA [P15G], for which the protein stability index was determined as 2.21. Under AFLELPHGSGGSGYWAAPPAVPFA [P15W] stands 1.99; under AFLELPHGSGGSGYAAAPPAVPFA [P15A], 2.27. Under AFLELPHGSGGSGYPLAPPAVPFA [A16L] stands 2.32. For AFLELPHGSGGSGYPWAPPAVPFA [A16W], the protein stability index was 1.94. For the variant AFLELPHGSGGSGYPDAPPAVPFA [A16D], the protein stability index worked out at 2.09.

Consider AFLELPHGSGGSGYPRAPPAVPFA [A16R], for which the protein stability index was 2.29. In the case of AFLELPHGSGGSGYPNAPPAVPFA [A16N], the protein stability index was 2.43.

Turning to AFLELPHGSGGSGYPQAPPAVPFA [A16Q], the protein stability index was found to be 2.77.

Consider AWLELPHGSGGSGYPAAPPAVPFA [F2W], for which the protein stability index worked out at 2.11. Under ALLELPHGSGGSGYPAAPPAVPFA [F2L] stands 3.08; under AALELPHGSGGSGYPAAPPAVPFA [F2A], 3.45; under AKLELPHGSGGSGYPAAPPAVPFA [F2K], 3.76. In the case of AGLELPHGSGGSGYPAAPPAVPFA [F2G], the protein stability index is 3.33.

ATLELPHGSGGSGYPAAPPAVPFA [F2T]: the protein stability index was determined as 3.49. In the case of AILELPHGSGGSGYPAAPPAVPFA [F2I], the protein stability index came out at 2.94.

On to ASLELPHGSGGSGYPAAPPAVPFA [F2S], for which the protein stability index stood at 3.63. Turning to AYLELPHGSGGSGYPAAPPAVPFA [F2Y], the protein stability index stood at 2.82. Turning to AFLELPHGSGGSGYPAANPAVPFA [P18N], the protein stability index was determined as 2.19. Under AFLELPHGSGGSGYPAAMPAVPFA [P18M] stands 2.56. On to AFLELPHGSGGSGYPAAKPAVPFA [P18K], for which the protein stability index came to 2.4. Under AFLELPHGSGGSGYPAAVPAVPFA [P18V] stands 2.01; under AFLELPHGSGGSGYPAALPAVPFA [P18L], 2.44.

As to AFLELPHGSGGSGYPAAYPAVPFA [P18Y], the protein stability index is 2.06. As for AFLELPHGSGGSGYPAAEPAVPFA [P18E], the protein stability index came to 3.32. Under AFWELPHGSGGSGYPAAPPAVPFA [L3W] stands 3.01; under AFHELPHGSGGSGYPAAPPAVPFA [L3H], 3.19. With AFCELPHGSGGSGYPAAPPAVPFA [L3C], the protein stability index is 2.7. Consider AFTELPHGSGGSGYPAAPPAVPFA [L3T], for which the protein stability index was found to be 3.23. On to AFNELPHGSGGSGYPAAPPAVPFA [L3N], for which the protein stability index came to 3.57. Under AFVELPHGSGGSGYPAAPPAVPFA [L3V] stands 2.93; under AFFELPHGSGGSGYPAAPPAVPFA [L3F], 2.68. Under AFRELPHGSGGSGYPAAPPAVPFA [L3R] stands 3.47; under AFPELPHGSGGSGYPAAPPAVPFA [L3P], 4.08. On to AFGELPHGSGGSGYPAAPPAVPFA [L3G], for which the protein stability index is 3.43. Under AFLNLPHGSGGSGYPAAPPAVPFA [E4N] stands 2.09; under AFLRLPHGSGGSGYPAAPPAVPFA [E4R], 1.76. As to AFLHLPHGSGGSGYPAAPPAVPFA [E4H], the protein stability index is 2.12. Regarding AFLLLPHGSGGSGYPAAPPAVPFA [E4L], the protein stability index was 2.21. Under AFLALPHGSGGSGYPAAPPAVPFA [E4A] stands 2.24.

Consider AFLSLPHGSGGSGYPAAPPAVPFA [E4S], for which the protein stability index turned out to be 2.19. Turning to AFLELPHGSGGHGYPAAPPAVPFA [S12H], the protein stability index came out at 2.22. Under AFLELPHGSGGNGYPAAPPAVPFA [S12N] stands 2.62; under AFLELPHGSGGKGYPAAPPAVPFA [S12K], 2.17; under AFLELPHGSGGLGYPAAPPAVPFA [S12L], 2.18. For AFLELPHGSGGIGYPAAPPAVPFA [S12I], the protein stability index is 2.28.

As to AFLELPHGSGGDGYPAAPPAVPFA [S12D], the protein stability index was 3. For AFLELPHGSGGRGYPAAPPAVPFA [S12R], the protein stability index amounted to 2.27.

Take AFLELPHGSGGGGYPAAPPAVPFA [S12G]: the protein stability index was found to be 2.31. In the case of AFLELPHGSGGVGYPAAPPAVPFA [S12V], the protein stability index was found to be 2.55. For the variant AFLELPHGSGGSGYPAVPPAVPFA [A17V], the protein stability index was 2.62. For the variant AFLELPHGSGGSGYPATPPAVPFA [A17T], the protein stability index stood at 2.58. Regarding AFLELPHGSGGSGYPANPPAVPFA [A17N], the protein stability index is 2.22. Take AFLELPHGSGGSGYPAYPPAVPFA [A17Y]: the protein stability index is 2.36. Under AFLELPHGSGGSGYPAQPPAVPFA [A17Q] stands 2.54; under AFLELPHGSGGSGYPAMPPAVPFA [A17M], 2.17. Regarding AFLELPHGSGGSGYPAWPPAVPFA [A17W], the protein stability index was found to be 2.02.

For the variant IFLELPHGSGGSGYPAAPPAVPFA [A1I], the protein stability index was determined as 2.67.

On to QFLELPHGSGGSGYPAAPPAVPFA [A1Q], for which the protein stability index was 2.77. Under DFLELPHGSGGSGYPAAPPAVPFA [A1D] stands 2.83.

As for RFLELPHGSGGSGYPAAPPAVPFA [A1R], the protein stability index amounted to 2.58. As for KFLELPHGSGGSGYPAAPPAVPFA [A1K], the protein stability index is 3.26. Turning to WFLELPHGSGGSGYPAAPPAVPFA [A1W], the protein stability index was found to be 1.89. Under YFLELPHGSGGSGYPAAPPAVPFA [A1Y] stands 2.21; under PFLELPHGSGGSGYPAAPPAVPFA [A1P], 2.94. Consider AFLELPHGSGGSGYPAAPPAFPFA [V21F], for which the protein stability index turned out to be 1.97. Consider AFLELPHGSGGSGYPAAPPACPFA [V21C], for which the protein stability index amounted to 2.09. Take AFLELPHGSGGSGYPAAPPAKPFA [V21K]: the protein stability index worked out at 3.23. Regarding AFLELPHGSGGSGYPAAPPAWPFA [V21W], the protein stability index was 2.07. On to AFLELPHGSGASGYPAAPPAVPFA [G11A], for which the protein stability index is 2.5. AFLELPHGSGDSGYPAAPPAVPFA [G11D]: the protein stability index came out at 2.89.
